Assay results as given in patent publication US12534541B2, “Anti-PTK7 antibody and uses thereof” (MABCARE THERAPEUTICS, priority 2023, dated 2026).

Experiments:
[1] = target: T1, Human PTK7 protein (Homo sapiens, UniProt Q13308); test: Relative binding activity to human PTK7 by ELISA
T1 construct: purchased Acrobiosystems PT7-H52H3
T1 sequence (Q13308 31-1070): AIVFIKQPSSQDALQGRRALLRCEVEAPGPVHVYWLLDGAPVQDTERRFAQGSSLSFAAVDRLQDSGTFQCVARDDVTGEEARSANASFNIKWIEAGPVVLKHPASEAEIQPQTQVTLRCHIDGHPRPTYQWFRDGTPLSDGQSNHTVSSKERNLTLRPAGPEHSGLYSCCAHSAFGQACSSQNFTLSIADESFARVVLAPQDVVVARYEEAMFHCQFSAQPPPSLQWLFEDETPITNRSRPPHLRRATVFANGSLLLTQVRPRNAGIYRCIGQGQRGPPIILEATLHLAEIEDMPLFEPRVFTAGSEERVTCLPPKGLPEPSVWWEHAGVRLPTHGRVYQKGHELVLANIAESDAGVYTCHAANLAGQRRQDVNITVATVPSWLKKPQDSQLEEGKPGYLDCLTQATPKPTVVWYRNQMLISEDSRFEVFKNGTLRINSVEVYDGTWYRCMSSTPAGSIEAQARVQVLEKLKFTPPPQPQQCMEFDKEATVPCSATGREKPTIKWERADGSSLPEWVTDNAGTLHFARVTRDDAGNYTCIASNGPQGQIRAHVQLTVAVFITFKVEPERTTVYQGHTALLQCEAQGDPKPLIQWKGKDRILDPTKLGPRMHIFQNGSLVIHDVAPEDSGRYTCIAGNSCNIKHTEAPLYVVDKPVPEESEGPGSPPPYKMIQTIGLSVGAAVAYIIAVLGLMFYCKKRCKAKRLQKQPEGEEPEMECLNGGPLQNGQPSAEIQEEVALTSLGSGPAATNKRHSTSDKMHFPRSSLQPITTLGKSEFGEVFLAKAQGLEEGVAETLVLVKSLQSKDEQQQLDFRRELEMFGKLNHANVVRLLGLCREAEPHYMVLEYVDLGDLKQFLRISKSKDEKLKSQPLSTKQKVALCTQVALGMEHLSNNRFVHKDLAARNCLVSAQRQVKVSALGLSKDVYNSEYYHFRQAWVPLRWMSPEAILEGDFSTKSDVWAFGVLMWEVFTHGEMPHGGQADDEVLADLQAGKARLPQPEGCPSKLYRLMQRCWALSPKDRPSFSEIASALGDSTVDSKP
Experimental: (§1) Human PTK7 protein (Catalog No. PT7-H52H3, Acrobiosystems), monkey PTK7 protein (Catalog No. PT7-C52H3, Acrobiosystems), and murine PTK7 protein (Catalog No. PT7-M52H3, Acrobiosystems) were incubated at 4° C. overnight and immobilized onto a 96-well plate. The plate was then blocked by incubating at 37° C. with 1% BSA in PBS for 1 h. After blocking, the plate was washed 3 times with PBST (PBS containing 0.05% Tween 20). Serial dilutions of anti-PTK7 antibody as prepared in Example 2 of the present disclosure was prepared in a binding buffer (PBS containing 0.05% Tween20 and 0.5% BSA) and incubated with the immobilized proteins at 37° C. for 1 h. After binding, the plate was washed 3 times with PBST, incubated with peroxidase-labeled donkey anti-human IgG (Jackson ImmunoResearch) diluted at 1/15,000 in the binding buffer at 37° C. for 1 h, washed again, developed with TMB and terminated with 1M H2SO4. The absorbance at 450 nm-620 nm was measured.

[2] = system: monkey PTK7 protein; test: Relative binding activity to monkey PTK7 by ELISA
Experimental: as §1

[3] = target: T2, murine PTK7 protein (Mus musculus, UniProt Q8BKG3); test: Relative binding activity to murine PTK7 by ELISA; conditions: immobilized protein
T2 construct: purchased Acrobiosystems PT7-M52H3
T2 sequence (Q8BKG3 23-1062): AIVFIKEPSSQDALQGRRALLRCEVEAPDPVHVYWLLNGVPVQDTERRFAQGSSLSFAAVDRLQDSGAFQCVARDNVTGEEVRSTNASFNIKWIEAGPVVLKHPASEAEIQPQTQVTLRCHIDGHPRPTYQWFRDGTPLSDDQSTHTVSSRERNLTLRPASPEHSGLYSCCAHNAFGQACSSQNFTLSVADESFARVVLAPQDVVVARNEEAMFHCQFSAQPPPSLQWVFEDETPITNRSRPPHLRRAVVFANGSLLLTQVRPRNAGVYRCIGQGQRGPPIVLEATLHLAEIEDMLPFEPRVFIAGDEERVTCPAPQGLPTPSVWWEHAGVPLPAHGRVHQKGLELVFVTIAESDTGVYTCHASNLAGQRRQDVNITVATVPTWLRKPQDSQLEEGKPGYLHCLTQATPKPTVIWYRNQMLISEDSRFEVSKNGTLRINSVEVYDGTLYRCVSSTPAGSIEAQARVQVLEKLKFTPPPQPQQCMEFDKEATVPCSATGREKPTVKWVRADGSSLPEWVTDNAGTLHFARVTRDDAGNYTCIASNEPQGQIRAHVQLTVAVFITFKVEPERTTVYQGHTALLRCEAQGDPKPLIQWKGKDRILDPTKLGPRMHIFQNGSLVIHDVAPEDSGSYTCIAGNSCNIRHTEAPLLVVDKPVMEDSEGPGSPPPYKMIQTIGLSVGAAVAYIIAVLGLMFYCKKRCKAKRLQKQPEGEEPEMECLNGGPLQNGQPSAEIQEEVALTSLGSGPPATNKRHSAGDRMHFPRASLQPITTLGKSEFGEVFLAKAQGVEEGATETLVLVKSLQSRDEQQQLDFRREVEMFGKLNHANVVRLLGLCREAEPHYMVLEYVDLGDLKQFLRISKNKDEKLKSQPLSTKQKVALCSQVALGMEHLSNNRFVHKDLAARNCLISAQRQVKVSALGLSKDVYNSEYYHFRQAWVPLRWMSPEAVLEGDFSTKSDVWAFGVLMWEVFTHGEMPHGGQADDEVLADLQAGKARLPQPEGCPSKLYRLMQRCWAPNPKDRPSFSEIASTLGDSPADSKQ
Experimental: as §1

- binding to human PTK7 protein ([1]; immobilized protein): specifically bind
- binding to monkey PTK7 protein ([2]; immobilized protein): specifically bind
B1: ch13: human-murine chimeric PTK7 antibody, VH SEQ ID NO: 20, VL SEQ ID NO: 19 (antibody, V domains shown)
VH: QVQLQQSGAELVRPGVSVKISCKGSGYTFTDYGMHWLKQSHAKSLEWIGVISPYYGDVTYNQKFKGKATMTVDKSSSTAYMELARLTSEDSAIYYCARGMGYWGQGTSVTVSS
VL: DVQITQSPSYLAASPGETITINCRASQSISKYLAWYQEKPGKTNKLLIYSGSTLQSGIPSRFSGSGSGTDFTLTISSLEPEDFAMYYCQQHNEYPWTFGGGTKLEIK
- affinity compared with h6M24 (positive control antibody) ([1]; human PTK7): significantly superior over that of h6M24
- affinity compared with h6M24 (positive control antibody) ([2]; monkey PTK7): significantly superior over that of h6M24
- cross-reaction with mouse PTK7 [3]: neither ch13 nor h6M24 antibodies cross-react
